The record followed here is patent publication US20240287163A1 (Chugai, published 2024).

Test in all cases: SPR (Biacore T200), antibody captured on protein L, FcγR injected
Assay [1] addresses T1, cynomolgus Fc gamma receptor IIa1 (cynomolgus monkey).
T1 construct: also called cyFcγRIIa1
T1 chain: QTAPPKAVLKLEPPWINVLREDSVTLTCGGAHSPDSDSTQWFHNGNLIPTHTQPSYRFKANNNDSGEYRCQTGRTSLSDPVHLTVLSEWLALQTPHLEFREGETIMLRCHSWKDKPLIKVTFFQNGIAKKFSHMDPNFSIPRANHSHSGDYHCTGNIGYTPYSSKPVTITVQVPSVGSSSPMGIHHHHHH
The method, then:
(§1) The binding property of each sample to FcγRs at pH7.4 was determined at 25° C. using BIACORE® T200 instrument (Cytiva). First, protein L (BioVision) was immobilized onto all of the flow cells of a CM4 sensor chip using Amine Coupling Kit, type2 (Cytiva). 50 mM phosphate buffer (pH7.4) containing 150 mM NaCl, 0.05% Tween® 20 was used as the running buffer, and antibodies with the binding response of which were prepared to 500 RU or 2000 RU were captured on the sensor surface. Human and monkey FcγRs diluted with the running buffer were injected thereto and the amount bound with the antibodies was measured. hFcγRIa and cyFcγRIa were diluted to 8 nM, and the rest were diluted to 1000 nM. The sensor surface was regenerated every cycle, using 10 mM glycine hydrochloride solution, pH1.5 (prepared in-house).

Assay [2] addresses T2, cynomolgus Fc gamma receptor IIIa (R) (cynomolgus monkey, UniProt Q8SPW2 17-208).
T2 construct: also called cyFcγRIIIa(R)
The method, then:
as §1

The target in assay [3] is T3, cynomolgus Fc gamma receptor IIa3 (cynomolgus monkey).
T3 construct: also called cyFcγRIIa3
T3 chain: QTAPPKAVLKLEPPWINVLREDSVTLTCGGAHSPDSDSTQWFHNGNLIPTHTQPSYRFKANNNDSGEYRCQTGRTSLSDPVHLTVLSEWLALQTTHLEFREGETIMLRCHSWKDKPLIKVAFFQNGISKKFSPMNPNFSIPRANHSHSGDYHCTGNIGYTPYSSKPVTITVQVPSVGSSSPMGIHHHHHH
The method, then: as §1

Assay [4] has as its target T4, cynomolgus Fc gamma receptor IIIa (S) (cynomolgus monkey, UniProt Q8SPW2 21-206 at identity 1.00)).
T4 construct: also called cyFcγRIIIa(S)
T4 chain: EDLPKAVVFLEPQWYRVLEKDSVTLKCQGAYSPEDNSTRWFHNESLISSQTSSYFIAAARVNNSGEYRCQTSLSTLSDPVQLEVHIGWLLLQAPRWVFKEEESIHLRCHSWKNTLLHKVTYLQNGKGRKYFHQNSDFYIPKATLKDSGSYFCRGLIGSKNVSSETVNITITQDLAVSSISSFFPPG
The method, then:
as §1

Assay [5] addresses T5, cynomolgus Fc gamma receptor IIa2 (cynomolgus monkey).
T5 construct: also called cyFcγRIIa2
T5 chain: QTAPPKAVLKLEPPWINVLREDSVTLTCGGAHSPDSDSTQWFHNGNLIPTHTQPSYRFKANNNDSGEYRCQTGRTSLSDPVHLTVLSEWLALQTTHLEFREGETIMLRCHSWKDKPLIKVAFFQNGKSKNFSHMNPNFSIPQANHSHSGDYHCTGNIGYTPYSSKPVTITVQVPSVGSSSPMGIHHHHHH
The method, then: as §1

For assay [6], the target named is T6, cynomolgus Fc gamma receptor Ia (cynomolgus monkey, UniProt P12314 16-288 (human entry)).
T6 construct: also called cyFcγRIa
T6 chain: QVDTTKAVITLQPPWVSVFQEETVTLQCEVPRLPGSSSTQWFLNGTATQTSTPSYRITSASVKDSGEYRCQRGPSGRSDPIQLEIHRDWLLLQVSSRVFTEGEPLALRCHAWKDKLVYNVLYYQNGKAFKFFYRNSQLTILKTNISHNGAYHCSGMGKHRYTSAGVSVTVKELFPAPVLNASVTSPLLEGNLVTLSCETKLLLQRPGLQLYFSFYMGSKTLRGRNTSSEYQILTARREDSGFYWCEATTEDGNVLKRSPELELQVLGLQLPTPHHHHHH
The method, then: as §1

Assay [7] deals with T7, cynomolgus Fc gamma receptor IIb (cynomolgus monkey).
T7 construct: also called cyFcγRIIb
T7 chain: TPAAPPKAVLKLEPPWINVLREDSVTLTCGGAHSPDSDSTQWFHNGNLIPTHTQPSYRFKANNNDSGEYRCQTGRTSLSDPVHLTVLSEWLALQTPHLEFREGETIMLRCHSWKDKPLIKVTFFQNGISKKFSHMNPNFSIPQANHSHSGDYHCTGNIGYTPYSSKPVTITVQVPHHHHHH
The method, then: as §1

T2 sequence (Q8SPW2 other isoform, or with tags, fused parts or gaps): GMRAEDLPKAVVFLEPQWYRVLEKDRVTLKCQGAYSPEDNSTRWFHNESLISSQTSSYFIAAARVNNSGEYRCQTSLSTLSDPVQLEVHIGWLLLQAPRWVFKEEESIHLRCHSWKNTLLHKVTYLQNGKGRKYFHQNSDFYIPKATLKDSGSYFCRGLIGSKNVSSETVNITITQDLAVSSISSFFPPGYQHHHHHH

B1: COS0637pHv2-FcgSil (antibody)
heavy: QVQLVESGGGVVQPGRSLRLSCAASGFRFSAYAMNWIRQPPGKGLEWIGLIYGKGSTFYASWAKERVTISVDTSKNQFSLKLSSVTAADTAVYYCARGRSVNYNSDFHLWGQGTLVTVSSASTKGPSVFPLAPSSKSTSGGTAALGCLVKDYFPEPVTVSWNSGALTSGVHTFPAVLQSSGLYSLSSVVTVPSSSLGTQTYICNVNHKPSNTKVDKRVEPKSCDKTHTCPPCPAPELRRGPSVFLFPPKPKDTLMISRTPEVTCVVVDVSDEDPEVKFNWYVDGVEVHNAKTKPREELYNSTYRVVSVLTVLHRDWLNGKEYKCKVSNTALPKPIEKTISKAKGQRREPQVYTLPPSREEMTKNQVSLTCLVKGFYPSDIAVEWESNGQPENNYKTTPPVLDSDGSFFLYSKLTVDKSRWQQGNVFSCSVLHEALHAHTTRKELSLSP
light: DIQMTQSPSSLSASVGDRVTITCQASQSLHDKKNLAWYQQKPGQPPKLLIYGASTLESGVPSRFSGSGSGTDFTLTISSLQPEDFATYYCQGEFSCSSADCNTFGQGTKVEIKRTVAAPSVFIFPPSDEQLKSGTASVVCLLNNFYPREAKVQWKVDNALQSGNSQESVTEQDSKDSTYSLSSTLTLSKADYEKHKVYACEVTHQGLSSPVTKSFNRGEC
notes: FcγR-silenced constant region FcgSil
For B1, the binding result is reported as “no binding (tested: 1000 nM)” in assay [1]; “no binding (tested: 1000 nM)” in assay [2]; “no binding (tested: 1000 nM)” in assay [3]; “no binding (tested: 1000 nM)” in assay [4]; “no binding (tested: 1000 nM)” in assay [5]; “no binding (tested: 8 nM)” in assay [6]. Moreover, the binding result in assay [7] is given as “no binding (tested: 1000 nM)”.
